From patent US5639616, “Isolated nucleic acid encoding a ubiquitous nuclear receptor” (Arch Development Corporation)

Columns and labels:
[1] = molecular target: human retinoid X receptor alpha (hRXRα) (human) (UniProt P19793)
[2] = molecular target: T1, rUR DNA-binding domain (UR-DBD) (Rattus norvegicus, UniProt Q62755 SEQ:72-168); test: EMSA; monomer plus homodimer; optimum homodimer spacing, supershifted by hinge antibody; conditions: tags: His tag, pET15b fusion, E. coli; label: 32P; 4-nt 5' overhangs
T1 sequence: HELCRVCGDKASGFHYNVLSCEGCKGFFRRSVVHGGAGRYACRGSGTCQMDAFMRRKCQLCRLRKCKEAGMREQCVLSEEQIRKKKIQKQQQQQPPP
Method: (§1) The DNA-binding ability of this domain was tested by gel-shift analyses with a set of oligonucleotides that contained AGGTCA direct repeats with 0 to 6 oligonucleotide spacing (shown above).
(§2) A segment of UR containing the DBD and a few amino acids of the hinge region (rUR amino acid residues 72 to 168) was expressed as a fusion protein using the E. coli expression vector PET15b and purified by affinity (Ni^+2/His-tag) chromatography. The DNA-binding ability of this domain was tested by gel shift analysis with a set of oligonucleotides that contained AGGTCA direct repeats with 0 to 6 oligonucleotide spacing. The UR fusion protein bound to all these direct repeats as a monomer, and optimum spacing for homodimer binding was 4 and 5 nucleotides, which is identical to a retinoic acid receptor response element (RARE). A hinge region peptide antibody super-shifted UR DBD homodimers bound to DR-4 and DR-5. Supershifting of monomer was not observed.

[3] = molecular target: T1, rUR DNA-binding domain (UR-DBD); test: EMSA; monomer plus homodimer; homodimer best on DR-4 and DR-5, supershifted by hinge antibody; conditions: tags: His tag, pET15b fusion, E. coli; label: 32P; 4-nt 5' overhangs
Method: as §1, §2

[4] = molecular target: T1, rUR DNA-binding domain (UR-DBD); test: EMSA; monomer binding; conditions: tags: His tag, pET15b fusion, E. coli; label: 32P; 4-nt 5' overhangs
Method: as §1, §2

rat ubiquitous nuclear receptor (rUR), full-length
CAT activity of a DR-4 CAT reporter in COS-1 cells, absence of 9c-RA [1]: 4 to 5 fold

B1: DR-5 (dsDNA)
DNA 1: GATCCTCAGGTCACCAGGAGGTCAGAAGCT
DNA 2: AGCTTCTGACCTCCTGGTGACCTGAGGATC
binding result [2]: binds

B2: DR-4 (dsDNA)
DNA 1: GATCCTCAGGTCACAGGAGGTCAGAAGCT
DNA 2: AGCTTCTGACCTCCTGTGACCTGAGGATC
binding result [3]: binds

B3: DR-1 (dsDNA)
DNA 1: GATCCTCAGGTCAGAGGTCAGAAGCT
DNA 2: AGCTTCTGACCTCTGACCTGAGGATC
binding result [4]: binds

B4: DR-6 (dsDNA)
DNA 1: GATCCTCAGGTCACCAAGGAGGTCAGAAGCT
DNA 2: AGCTTCTGACCTCCTTGGTGACCTGAGGATC
binding result [4]: binds

B5: DR-3 (dsDNA)
DNA 1: GATCCTCAGGTCAAGGAGGTCAGAAGCT
DNA 2: AGCTTCTGACCTCCTTGACCTGAGGATC
binding result [4]: binds

B6: DR-2 (dsDNA)
DNA 1: GATCCTCAGGTCAAGAGGTCAGAAGCT
DNA 2: AGCTTCTGACCTCTTGACCTGAGGATC
binding result [4]: binds

B7: DR-0 (dsDNA)
DNA 1: GATCCTCAGGTCAAGGTCAGAAGCT
DNA 2: AGCTTCTGACCTTGACCTGAGGATC
binding result [4]: binds
